The record followed here is patent publication US8524460.

Holding throughout (test): ELISA: GST-PSCA fusion protein 50 ng/well, hybridoma supernatant, anti-mouse-HRP, TMB; mean of duplicates
Substrate in experiment [1]: T1, N (2-50)
T1 sequence (O43653 whole entry, species assumed, looked up): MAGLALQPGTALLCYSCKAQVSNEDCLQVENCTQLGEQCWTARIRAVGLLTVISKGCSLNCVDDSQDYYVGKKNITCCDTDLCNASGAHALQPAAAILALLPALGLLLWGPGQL

Substrate in experiment [2]: T2, C (85-123)
T2 sequence (O43653 whole entry, species assumed, looked up): T1 sequence (O43653 whole entry, species assumed, looked up)

Experiment [3] addresses T3, PSCA-glutathione S-transferase (GST) fusion protein (human) (UniProt O43653).
T3 sequence: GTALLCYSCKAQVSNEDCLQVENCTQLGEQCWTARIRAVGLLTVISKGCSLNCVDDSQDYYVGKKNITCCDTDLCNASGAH

The target in experiment [4] is T4, M (46-109).
T4 sequence (O43653 whole entry, species assumed, looked up): T1 sequence (O43653 whole entry, species assumed, looked up)

B1: anti-PSCA monoclonal antibody 4A10 (antibody, part only; not given: light chain, mouse IgG2a, V domains shown, part only)
VH: LVATASDVHSQVQLQQPGSELVRPGTSVKLSCKASGYTFSSYWMHWVKQRPGQGLEWIGNIDPGSGYTNYAENLKTKATLTVDTSSSTAYMQLSSLTSEDSAVYYCTSRSTMITTGFAYWGQGTLVTVSAATTTAPSVYPLA
As to B1, the OD 450 nm in experiment [1] amounted to 0.493 OD 450 nm; in experiment [2], 0.001 OD 450 nm; in experiment [3] it was 1.05 OD 450 nm.

B2: anti-PSCA monoclonal antibody 1G8 (antibody, part only; not given: light chain, mouse IgG1, V domains shown, part only)
VH: CFFLMAVVIGVNSEVQLQQSGAELVRSGASVKLSCTASGFNIKDYYIHWVNQRPDQGLEWIGWIDPENGDTEFVPKFQGKATMTADIFSNTAYLHLSSLTSEDTAVYYCKTGGFWGQGTLVTVSAAKTTPPSVYPL
For the molecule B2, the OD 450 nm in experiment [1] stood at 0.004 OD 450 nm; in experiment [2], 0.003 OD 450 nm; in experiment [4], 1.27 OD 450 nm; in experiment [3], 1.49 OD 450 nm.

B3: anti-PSCA monoclonal antibody 2H9 (antibody, part only; not given: light chain, mouse IgG1, part only)
VH: NDFGLSWVFIIVLLKGVRSEVRLEESGGGWVQPGGSMKLSCVASGFTFSNYWMTWVRQSPEKGLEWVAEIRLRSENYATHYAESVKGKFTISRDDSRSRLYLQMNNLRPEDSGIYYCTDGLGRPNWGQGTLVTVSAAKTTPPSVYPLAPCV
Regarding B3, the OD 450 nm in experiment [1] was 1.03 OD 450 nm; in experiment [2] it was 0.001 OD 450 nm; in experiment [4], 0.002 OD 450 nm; in experiment [3], 1.07 OD 450 nm.
